Here are results for three molecules from patent publication US6958322.

For series [1], the target named is purified plasma factor IX (Stago) (UniProt P00740).
In series [2] the test system is rFX/FXIa (Q-R/I) analog.
Series [3] relates to recombinant factor X wild type (rFX).
Series [4] deals with corresponding murine coagulation proteins. The series is described as follows: cell-based or functional assay.
Series [5] shares this target.

Chain of UniProt P00740 (P00740 whole entry, looked up): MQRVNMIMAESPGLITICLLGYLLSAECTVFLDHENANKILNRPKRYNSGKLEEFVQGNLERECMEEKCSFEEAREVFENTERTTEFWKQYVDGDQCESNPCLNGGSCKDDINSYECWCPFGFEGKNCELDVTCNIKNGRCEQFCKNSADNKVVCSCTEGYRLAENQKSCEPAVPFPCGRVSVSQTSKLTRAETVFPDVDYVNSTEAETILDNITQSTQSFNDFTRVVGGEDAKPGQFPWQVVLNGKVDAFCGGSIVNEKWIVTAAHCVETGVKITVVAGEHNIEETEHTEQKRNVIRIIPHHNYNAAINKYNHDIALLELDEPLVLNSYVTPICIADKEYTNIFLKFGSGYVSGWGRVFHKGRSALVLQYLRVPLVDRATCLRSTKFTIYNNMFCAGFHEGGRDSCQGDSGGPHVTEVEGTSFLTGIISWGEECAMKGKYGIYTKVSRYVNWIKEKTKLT

Turning to purified factor XIa, the “cleavage / conversion into activated forms, Western blot” value in series [1] is “The conversion of FIX into the activated forms (FIXa and FIXb)”. For the same molecule, the “cleavage / in vitro activation, Western blot” value in series [2] was “after an incubation time of 1 h at 37 °C in the presence of CaCl2, the reaction batch of FXIa, with rFX/FXIa (Q-R/I) as a substrate, shows protein bands of approximately 36 kD and 32 kD which resemble the activated alpha and beta forms (aHCa and bHCa) of the heavy chain of FX”. The “cleavage, Western blot (negative control)” value in series [3] was “compared to rFX in the absence of FXIa, no change for rFX is visible in the protein pattern after incubation with FXIa”.

B1: rFX/FXIa (Q-R/I) analog, P00742 41-179; P00742 183-488 (enzyme)
light: ANSFLEEMKKGHLERECMEETCSYEEAREVFEDSDKTNEFWNKYKDGDQCETSPCQNQGKCKDGLGEYTCTCLEGFEGKNCELFTRKLCSLDNGDCDQFCHEEQNSVVCSCARGYTLADNGKACIPTGPYPCGKQTLER
heavy: SVAQATSSSGEAPDSITWKPYDAADLDPTENPFDLLDFNQTQPEQSFNDFTRIVGGQECKDGECPWQALLINEENEGFCGGTILSEFYILTAAHCLYQAKRFKVRVGDRNTEQEEGGEAVHEVEVVIKHNRFTKETYDFDIAVLRLKTPITFRMNVAPACLPERDWAESTLMTQKTGIVSGFGRTHEKGRQSTRLKMLEVPYVDRNSCKLSSSFIITQNMFCAGYDTKQEDACQGDSGGPHVTRFKDTYFVTGIVSWGESCARKGKYGIYTKVTAFLKWIDRSMKTRGLPKAKSHAPEVITSSPLK
In the case of B1, in series [4], the Coagulation Time in sec. (aPTT, FIX-def. mouse plasma + rfX/fXIa(Q-R/I)) was 48.6 s and the Coagulation Time in sec. (aPTT, FVIII-def. mouse plasma + rfX/fXIa(Q-R/I)) was found to be 52.5 s.

B2: rFX/FXIa (Q-R/I) analog (protein)
chain 1: B1 light
chain 2: B1 heavy
As for B2, in series [5], the % Activity in mouse plasma (aPTT, FIX-def. plasma + rfX/fXIa(Q-R/I)) was determined as 166% and the % Activity in mouse plasma (aPTT, FVIII-def. plasma + rfX/fXIa(Q-R/I)) came to 97%.
